Experimental data published in US11674950B2, “Methods determining and treating cellular resistance to ADP-rtbosylating toxin” (priority 2017, dated 2023).

Tests used:
DPH1 locus = test: Bisulfite pyrosequencing of DPH1 locus CpG sites; assay type: cell-based, human; conditions: azacitidine 300 nM, 2 days on/2 days off over 2 weeks; resistant cells
Procedure: DPH1 expression is known to be regulated by DNA methylation and sensitivity to Pseudomonas exotoxin A was previously shown to be modulated by CpG methylation in the DPH1 locus. To test whether loss of DPH1 is mediated by DNA methylation, bisulfite pyrosequencing of the DPH1 locus in CpG islands (30 individual CpG sites) was performed by EpigenDx analysis (available on the World Wide Web at epigendx.com/d/service/pyrosequencing/) and the % methylated cytosine at each CpG site was quantitated. This analysis was performed in THP1 parental and 2 SL-401 resistant subclones, and CAL1 parental and 2 SL-401 resistant subclones. Data plotted in FIG. 12 are from THP1 cells, and are representative of CAL1. […] Given this finding, it was believed that 5-azacitidine, a DNA methyltransferase inhibitor or “DNA hypomethylating agent” can reverse the aberrant DPH1 hypermethylation and restore DPH1 expression. The parental and resistant cells were also treated with non-cytotoxic, low doses of azacitidine, so called “epigenetic dosing” (300 nM, 2 days on/2 days off) over 2 weeks to determine if the hypermethylation was reversible by DNA methyltransferase inhibition.

eEF2 = test: In vitro ADP-ribosylation assay in cell lysates with biotin-NAD+; assay type: biochemical, human
Procedure: A biochemical assay was next performed to test the ability of tagraxofusp to catalyze ADP-ribosylation in cellular lysates in the presence of exogenous biotin-tagged […] (NAD) as a source of ADP-ribose.
To determine the biochemical mechanism of SL-401 resistance and restoration of sensitivity upon non-cytotoxic treatment with azacitidine, an in vitro ADP-ribosylation assay was developed to perform lysates harvested from human leukemia cells. Briefly, 50 μg of cell lysates were harvested and mixed with 5 uM NAD+-Biotin (R&D Systems; 4670-500-01), in the presence or absence of 100 ng of SL-401 (or DT) in 35 uL of reaction buffer containing 20 mM Tris-HCl pH 7.4, 1 mM EDTA, and 50 mM DTT. The mixture is incubated for 15 minutes at room temperature and then the reaction is halted by boiling in SDS loading buffer. An SDS polyacrylamide gel is run and proteins are transferred to a PVDF membrane as in a Western blot. Protein levels are determined by traditional western blot. ADP-ribosylation of target proteins is detected by streptavidin-HRP (Abcam ab7403). […] Top blot is ADP-ribose, presumably on eEF2 (band is at same position as eEF2 protein detected by antibody); next, are levels of eEF2, DPH1, and beta-actin protein.

CAL1 and THP1 cells = test: Short-term cytotoxicity of azacitidine in parental and SL-401 resistant cells; assay type: cell-based, human
Procedure: Next, it was tested if azacitidine cooperated with tagraxofusp in AML and BPDCN cells. First, given that azacitidine acts as a cytotoxic chemotherapy at higher doses, experiments were performed to determine whether tagraxofusp-resistant cells were more sensitive to short-term treatment, similar to what was described above (FIGS. 6-8).

[1] = test system: BPDCN patient-derived xenografts; assay type: in vivo, mouse; conditions: for time to progression of peripheral blood leukemia burden: two cycles
DPH1 = test: Quantitative RT-PCR and Western blot for DPH1; assay type: cell-based, human
[2] = test system: CAL1, SHI1, and THP1 parental and tagraxofusp-resistant cells; test: MTT viability after conventional chemotherapy (cytarabine, vincristine); assay type: cell-based, human; conditions: SL-401 resistant vs parental CAL1, SHI1, THP1
Procedure: CAL1, SHI1, and THP1 parental and tagraxofusp-resistant cells were tested in MTT viability assays after exposure to increasing doses of cytarabine (AraC) or vincristine (VCR).

THP1 human AML cells [3] = test: In situ histochemical ADP-ribosylation assay; assay type: cell-based; conditions: resistant vs parental THP1
[4] = test system: IL3R (e.g., CD123) positive AML cell lines and primary leukemia cells; conditions: cited from earlier work
[5] = test system: mouse models of human leukemia; conditions: in vivo; cited from earlier work
[6] = rodents and monkeys; cited from earlier work
THP1 human AML cells [7] = test: Single cell flow cytometric ADP-ribosylation assay; assay type: cell-based; conditions: resistant vs parental THP1
Procedure: THP1 human AML cells are shown that are parental SL-401 sensitive or SL-401 resistant.
For example, in another embodiment, a flow ADP ribosylation assay may be used to measure the functional activity of the entire diphthamide synthesis pathway (FIG. 20). […] The cells were stained with antibodies (e.g., CD45-APC, CD123-PE) at concentration of 1:100, incubated for 30 min at 4° C., and then washed with FACS buffer 5 minutes. The cells were fixed with 3% paraformaldehyde (PFA), incubated for 20 min at RT, and washed with PBS for 5 minutes. The cells were permeabilized with Saponin (1:10 in H2O, BD Biosciences-“Perm/Wash” solution) for 20 min at 4° C., washed with PBS for 5 minutes, and applied with endogenous Streptavidin block (BD Biosciences) for 20 min at RT. The cells were then washed with PBS for 5 minutes and applied with endogenous Biotin block (BD Biosciences) for 20 min at RT. The cells were then washed with PBS for 5 minutes and applied with protein block for 30 min at RT. The cells were washed twice with FACS buffer. Each wash was for 5 minutes. SL-401/biotin solution was added to the samples and the samples was incubated for 30 min at RT. […] The cells were washed 5 minutes in FACS buffer, resuspended in 300 μl FACS buffer and level of the ADP was detected with the flow assay.

[8] = test system: parental or tagraxofusp-resistant CAL1 cells; test: Confocal microscopy of internalization of fluorescently tagged SL-401; assay type: cell-based, human; conditions: 30-60 minutes after exposure, resistant vs parental cells
[9] = 14 days from initiation of treatment, vs vehicle

Molecule: Nc1ncn([C@@H]2O[C@H](CO)[C@@H](O)[C@H]2O)c(=O)n1 [azacitidine, 5-azacytidine]
- DPH1 CpG DNA methylation (DPH1 locus): reduction in the DPH1 CpG DNA hypermethylation
- tagraxofusp-mediated ADP ribosylation after azacitidine (eEF2; long-term azacitidine-treated resistant THP1 cells): complete restoration of tagraxofusp-mediated ADP ribosylation activity
- azacitidine dose response, resistant vs parental (CAL1 and THP1 cells; CAL1 parental and 3 SL-401 resistant subclones): increased sensitivity in resistant cells
- azacitidine cytotoxicity, resistant vs parental (CAL1 and THP1 cells; THP1, short-term (72 hour), cytotoxic doses): more sensitive to cytotoxic doses of azacitidine than parental cells
- time to progression of peripheral blood leukemia burden ([1]; four-arm study): prolonged the time to progression of peripheral blood leukemia burden
- DPH1 protein levels after azacitidine (DPH1; Western blot, resistant THP1 clones): partially or fully restored
- DPH1 mRNA expression (DPH1; azacitidine 300 nM, 2 days on/2 days off over 2 weeks, quantitative RT-PCR): partially restored mRNA expression

Molecule: Nc1ccn([C@@H]2O[C@H](CO)[C@@H](O)[C@@H]2O)c(=O)n1 [cytarabine]
- sensitivity of SL-401 resistant cells to chemotherapy [2]: more sensitive to chemotherapy compared to the parental cells

Molecule: CC[C@]1(O)C[C@H]2CN(CCc3c([nH]c4ccccc34)[C@@](C(=O)OC)(c3cc4c(cc3OC)N(C=O)[C@H]3[C@@](O)(C(=O)OC)[C@H](OC(C)=O)[C@]5(CC)C=CCN6CC[C@]43[C@@H]65)C2)C1 [vincristine]
- sensitivity of SL-401 resistant cells to chemotherapy [2]: more sensitive to chemotherapy compared to the parental cells

B1: tagraxofusp (protein)
chain: MGADDVVDSSKSFVMENFSSYHGTKPGYVDSIQKGIQKPKSGTQGNYDDDWKGFYSTDNKYDAAGYSVDNENPLSGKAGGVVKVTYPGLTKVLALKVDNAETIKKELGLSLTEPLMEQVGTEEFIKRFGDGASRVVLSLPFAEGSSSVEYINNWEQAKALSVELEINFETRGKRGQDAMYEYMAQACAGNRVRRSVGSSLSCINLDWDVIRDKTKTKIESLKEHGPIKNKVISESPNKTVSEEKAKQYLEEFHQTALEHPELSELKTVTGTNPVFAGANYAAWAVNVAQVIDSETADNLEKTTAALSILPGIGSVMGIADGAVHHNTEEIVAQSIALSSLMVAQAIPLVGELVDIGFAAYNFVESIINLFQVVHNSYNRPAYSPGHKTRPHMAPMTQTTSLKTSWVNCSNMIDEIITHLKQPPLPLLDFNNLNGEDQDILMENNLRRPNLEAFNRAVKSLQNASAIESILKNLLPCLPLATAAPTRHPIHIKDGDWNEFRRKLTFYLKTLENAQAQQTTLSLAW
- SL-401-dependent ADP ribosylation activity (THP1 human AML cells [3]): diminished in the SL-401 resistant cells
- ADP-ribosylation in lysates (eEF2; parental cells): caused ADP-ribosylation of a single protein
- ADP-ribosylation in lysates (eEF2; tagraxofusp-resistant cells): unable to catalyze ADP-ribosylation of any proteins in the lysate
- cytotoxicity [4]: potently and selectively cytotoxic
- spleen size [1, 9]: reduction in splenomegaly
- splenic infiltration [1, 9]: decreased splenic infiltration of human BPDCN cells
- mice remaining at 200 days ([1]; four-arm study, n=10 mice per arm): one
- progression-free survival ([1]; one cycle, daily for 5 days, three PDXs combined, vehicle 12 days): 48 days
- overall survival ([1]; one cycle, daily for 5 days, three PDXs combined, vehicle 35 days): 71 days
- reduction of leukemia burden vs vincristine/dexamethasone ([1]; peripheral blood flow cytometry, most animals): longer sustained reduction in human BPDCN leukemia burden
- residual CD45+CD123+ leukemia at 200 days ([1]; peripheral blood, spleen, and bone marrow): detectable leukemia cells in spleen and bone marrow
- effect of a second cycle ([1]; second cycle at progression): effective
- response of PDX cohorts ([1]; three cohorts, 100 ug/kg/day intraperitoneally x5 days): prolonged progression-free and overall survival
- time to progression of peripheral blood leukemia burden ([1]; four-arm study): prolonged the time to progression of peripheral blood leukemia burden
- anti-tumor efficacy [5]: in vivo anti-tumor efficacy
- safety [6]: Safety was shown at therapeutically active doses
- SL-401-dependent ADP ribosylation activity (THP1 human AML cells [7]): diminished in the SL-401 resistant cells

B2: Tagraxofusp-APC: APC-tagged, fluorescently labeled tagraxofusp used for confocal microscopy (conjugate)
chain: MGADDVVDSSKSFVMENFSSYHGTKPGYVDSIQKGIQKPKSGTQGNYDDDWKGFYSTDNKYDAAGYSVDNENPLSGKAGGVVKVTYPGLTKVLALKVDNAETIKKELGLSLTEPLMEQVGTEEFIKRFGDGASRVVLSLPFAEGSSSVEYINNWEQAKALSVELEINFETRGKRGQDAMYEYMAQACAGNRVRRSVGSSLSCINLDWDVIRDKTKTKIESLKEHGPIKNKVISESPNKTVSEEKAKQYLEEFHQTALEHPELSELKTVTGTNPVFAGANYAAWAVNVAQVIDSETADNLEKTTAALSILPGIGSVMGIADGAVHHNTEEIVAQSIALSSLMVAQAIPLVGELVDIGFAAYNFVESIINLFQVVHNSYNRPAYSPGHKTRPHMAPMTQTTSLKTSWVNCSNMIDEIITHLKQPPLPLLDFNNLNGEDQDILMENNLRRPNLEAFNRAVKSLQNASAIESILKNLLPCLPLATAAPTRHPIHIKDGDWNEFRRKLTFYLKTLENAQAQQTTLSLAW
- drug internalization [8]: internalized equally in resistant and parental cells
